Data taken from US20150246947A1 (BAXALTA, published 2015).
Positions of bridges follow the written chain, without caps; N, C: chain ends.

T1: human Protein S (UniProt P07225 42-676)
T1 chain: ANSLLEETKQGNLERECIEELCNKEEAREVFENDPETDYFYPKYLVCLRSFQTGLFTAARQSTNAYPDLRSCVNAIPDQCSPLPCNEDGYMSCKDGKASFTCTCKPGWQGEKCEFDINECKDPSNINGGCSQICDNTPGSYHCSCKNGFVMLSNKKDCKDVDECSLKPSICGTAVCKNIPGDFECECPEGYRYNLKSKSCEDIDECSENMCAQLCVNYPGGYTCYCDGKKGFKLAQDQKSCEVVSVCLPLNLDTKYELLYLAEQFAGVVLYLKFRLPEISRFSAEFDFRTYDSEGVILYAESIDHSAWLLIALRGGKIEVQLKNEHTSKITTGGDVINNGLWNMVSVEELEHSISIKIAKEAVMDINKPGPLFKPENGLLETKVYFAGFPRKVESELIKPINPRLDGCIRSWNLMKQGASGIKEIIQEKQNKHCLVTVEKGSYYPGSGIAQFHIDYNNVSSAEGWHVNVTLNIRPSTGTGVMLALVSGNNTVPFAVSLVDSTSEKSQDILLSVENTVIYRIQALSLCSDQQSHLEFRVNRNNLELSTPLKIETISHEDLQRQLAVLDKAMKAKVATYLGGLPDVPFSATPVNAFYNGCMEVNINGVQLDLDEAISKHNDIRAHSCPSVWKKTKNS

B1: JBS3171 (peptide)
chain: Ac-TCLVSAGWYDYNCDHYREFT-NH2
modifications: disulfide 2-13
SMILES: CC(=O)N[C@H](C(=O)N[C@H]1CSSC[C@@H](C(=O)N[C@@H](CC(=O)O)C(=O)N[C@@H](Cc2c[nH]cn2)C(=O)N[C@@H](Cc2ccc(O)cc2)C(=O)N[C@@H](CCCNC(=N)N)C(=O)N[C@@H](CCC(=O)O)C(=O)N[C@@H](Cc2ccccc2)C(=O)N[C@H](C(N)=O)[C@@H](C)O)NC(=O)[C@H](CC(N)=O)NC(=O)[C@H](Cc2ccc(O)cc2)NC(=O)[C@H](CC(=O)O)NC(=O)[C@H](Cc2ccc(O)cc2)NC(=O)[C@H](Cc2c[nH]c3ccccc23)NC(=O)CNC(=O)[C@H](C)NC(=O)[C@H](CO)NC(=O)[C@H](C(C)C)NC(=O)[C@H](CC(C)C)NC1=O)[C@@H](C)O
B2: JBS3168 (peptide)
chain: Ac-TGLCVSAGWYDYNCDHYREFT-NH2
modifications: disulfide 4-14
SMILES: CC(=O)N[C@H](C(=O)NCC(=O)N[C@@H](CC(C)C)C(=O)N[C@H]1CSSC[C@@H](C(=O)N[C@@H](CC(=O)O)C(=O)N[C@@H](Cc2c[nH]cn2)C(=O)N[C@@H](Cc2ccc(O)cc2)C(=O)N[C@@H](CCCNC(=N)N)C(=O)N[C@@H](CCC(=O)O)C(=O)N[C@@H](Cc2ccccc2)C(=O)N[C@H](C(N)=O)[C@@H](C)O)NC(=O)[C@H](CC(N)=O)NC(=O)[C@H](Cc2ccc(O)cc2)NC(=O)[C@H](CC(=O)O)NC(=O)[C@H](Cc2ccc(O)cc2)NC(=O)[C@H](Cc2c[nH]c3ccccc23)NC(=O)CNC(=O)[C@H](C)NC(=O)[C@H](CO)NC(=O)[C@H](C(C)C)NC1=O)[C@@H](C)O

Biological target: T1, human Protein S
Test: LANCE competition
Procedure, shortened: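 IC50 was derived by non-linear regression of the acceptor emission in a LANCE time-resolved FRET competition assay using europium-labelled Protein S, ULight-labelled streptavidin, a biotinylated tracer peptide and three-fold titrations of unlabelled test peptide. Reactions of 50 µl contained 10 nM Protein S, 100 nM streptavidin and 300 nM tracer at final concentration (2 nM Protein S and 60 nM tracer on a Tecan F500), were kept 1 hour at room temperature, and were read at Ex 340 nm, Em 665 nm.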
MEYYVSAGWYDYNTDTYYEFE [JBS3224] was tested, and the IC50 was 1.3 nM.
Work on Ac-EYYVSAGWYNYEEDSYYEFE-NH2 [JBS3247] yielded an IC50 of 1.9 nM.
B1 was tested, and the IC50 was 336 nM.
MEYYVSAGWYDYNTDTYYEFE [JBS3215] gave an IC50 of 0.8 nM.
Ac-EYYVSAGWYDYNTDRYYEFY-NH2 [JBS3238] was tested, and the IC50 was 1.3 nM.
In the case of TGCLVSAGWYDYNCDHYREFT [JBS3169], the IC50 is reported as 544 nM.
Binder Ac-DDEVSIGWYDYNTDEYVEFW-NH2 [JBS3295] has an IC50 of 14.6 nM.
Ac-EYTVSAGWYDYNKDTYEEFK-NH2 [JBS3220] gave an IC50 of 3.5 nM.
In the case of Ac-GLVSAGWYDYNFDHYREF-NH2 [JBS3182], the IC50 is reported as 20.9 nM.
In the case of Ac-TGLVSAGWYDYNFDHYREF-NH2 [JBS3181], the IC50 is reported as 9.5 nM.
In the case of Ac-YGLVSAGWYDYNFDHYREFT-NH2 [JBS2928], the IC50 is reported as 3.7 nM.
Binder Ac-SATVSAGWYDYNKDVYFEFE-NH2 [JBS3273] has an IC50 of 2.3 nM.
With Ac-TCLVSAGWYDYNFDCYREFT-NH2 (disulfide 2-15 (inferred); not fully specified) [JBS3173] the IC50 was 208 nM.
Ac-EYYVSAGWYDYNNDTYNEFW-NH2 [JBS3243] was tested, and the IC50 was 1.3 nM.
Work on B2 yielded an IC50 of 604 nM.
Ac-SGLVSAGWYDYNFDSYREFT-NH2 [JBS3185] was tested, and the IC50 was 7.2 nM.
Ac-TYYVSAGWYGYNNDRYYEFY-NH2 [JBS3250] gave an IC50 of 22.7 nM.
